Laboratory results as given in US20240294914A1, “COMPOSITIONS AND METHODS FOR TREATING HEPATITIS B VIRUS INFECTION” (priority 2021, published 2024).
Strand notation (5' to 3'): a small letter for the sugar, then the base; units joined by * are phosphorothioate-linked, units joined directly phosphodiester-linked; [ ] holds rarer units or linkages, { } end groups; capitals alone tell only the bases. m = 2'-O-methyl; r = 2'-OH (RNA)

B1: ABE-41: guide RNA SEQ ID NO: 5513 (nucleic acid)
guide: AGAAGATGAGGCATAGCAGCGTTTTAGAGCTAGAAATAGCAAGTTAAAATAAGGCTAGTCCGTTATCAACTTGAAAAAGTGGCACCGAGTCGGTGCTTTT
modifications: chemistry not fully specified
B2: cas12b-4: guide RNA SEQ ID NO: 379 (nucleic acid)
guide: mG*mU*mU*rCrUrGrUrCrUrUrUrUrGrGrUrCrArGrGrArCrArArCrCrGrUrCrUrArGrCrUrArUrArArGrUrGrCrUrGrCrArGrGrGrUrGrUrGrArGrArArArCrUrCrCrUrArUrUrGrCrUrGrGrArCrGrArUrGrUrCrUrCrUrUrArCrGrArGrGrCrArUrUrArGrCrArCrArCrArArGrArArUrCrCrUrCrArCrArArUrArCrC
B3: cas12b-5: guide RNA SEQ ID NO: 380 (nucleic acid)
guide: mG*mU*mU*rCrUrGrUrCrUrUrUrUrGrGrUrCrArGrGrArCrArArCrCrGrUrCrUrArGrCrUrArUrArArGrUrGrCrUrGrCrArGrGrGrUrGrUrGrArGrArArArCrUrCrCrUrArUrUrGrCrUrGrGrArCrGrArUrGrUrCrUrCrUrUrArCrGrArGrGrCrArUrUrArGrCrArCrUrCrGrCrUrGrGrArUrGrUrGrUrCrUrGrCrGrGrC
B4: cas12b-11: guide RNA SEQ ID NO: 381 (nucleic acid)
guide: mG*mU*mU*rCrUrGrUrCrUrUrUrUrGrGrUrCrArGrGrArCrArArCrCrGrUrCrUrArGrCrUrArUrArArGrUrGrCrUrGrCrArGrGrGrUrGrUrGrArGrArArArCrUrCrCrUrArUrUrGrCrUrGrGrArCrGrArUrGrUrCrUrCrUrUrArCrGrArGrGrCrArUrUrArGrCrArCrCrArCrCrUrGrUrArUrUrCrCrCrArUrCrCrCrArU
B5: ABE-133: guide RNA SEQ ID NO: 5516 (nucleic acid)
guide: GAAGATGAGGCATAGCAGCAGTTTTAGAGCTAGAAATAGCAAGTTAAAATAAGGCTAGTCCGTTATCAACTTGAAAAAGTGGCACCGAGTCGGTGCTTTT
modifications: chemistry not fully specified
B6: PolyA-NGC1: guide RNA SEQ ID NO: 5499 (nucleic acid)
guide: GACCCTTATAAAGAATTTGGGTTTTAGAGCTAGAAATAGCAAGTTAAAATAAGGCTAGTCCGTTATCAACTTGAAAAAGTGGCACCGAGTCGGTGCTTTT
modifications: chemistry not fully specified
B7: PolyA-NGC2: guide RNA SEQ ID NO: 5500 (nucleic acid)
guide: TTTATAAGGGTCGATGTCCAGTTTTAGAGCTAGAAATAGCAAGTTAAAATAAGGCTAGTCCGTTATCAACTTGAAAAAGTGGCACCGAGTCGGTGCTTTT
modifications: chemistry not fully specified
B8: cas12b-152: guide RNA SEQ ID NO: 5523 (nucleic acid)
guide: GUUCUGUCUUUUGGUCAGGACAACCGUCUAGCUAUAAGUGCUGCAGGGUGUGAGAAACUCCUAUUGCUGGACGAUGUCUCUUACGAGGCAUUAGCACAGAGAAGUCCACCACGAGUC
modifications: listed as RNA, chemistry not fully specified

Experiments:
[1] = system: Hepatitis B virus; assay: HBV minicircle (HBVcircle) mouse model: serum HBsAg, HBeAg, HBV DNA after LNP injection; type: in vivo
Text: Having established the efficacy of these base editing reagents in vitro, experiments were then undertaken to evaluate these same base editing reagents for antiviral efficacy in vivo using the HBV minicircle mouse model. […] After establishing HBV viral replication, hepatic delivery of the base editing reagents was achieved via systemic administration of lipid nanoparticles (LNPs) formulated with the following base editing reagents: CBE mRNA and HBV-targeting gRNAs (e.g., gRNA37 and gRNA40 (see Table 1)). The mice were administered a combination of base editors, where the combination was either gRNA37 and gRNA40 or gRNA37-HM and gRNA40-HM. The guides gRNA37-HM and gRNA40-HM each included heavily modified(HM) scafolds (see Table 1).
Table 23 below provides a summary of the experimental design used to evaluate the base editing reagents in vivo. The mice contained an HBVcircle polynucleotide that enabled HBV replication in vivo. See, for example Yan et al., J. Hepatol 2017 66:1149-1157 for a description of an exemplary mouse model. The mice were administered lipid nanoparticles (BL4 LNP) containing mRNA encoding BE4 (a cytidine base editor) and either the guide RNAs gRNA37 and gRNA40 or the guide RNAs gRNA37-HM and gRNA-40-HM containing a scaffold with heavy modifications (HM). […] HBsAg, HbeAg, and HBV DNA levels in serum were measured weekly (FIGS. 24A-24C and 25A-25C). […]

[2] = system: Hepatitis B virus; assay: Antiviral efficacy in HBV-infected primary human hepatocytes (HBV-PHH): HBsAg, HBeAg, HBV DNA, 3.5 kb RNA, rebound; type: cell-based; conditions: HBV-PHH system, guide RNA + mRNA encoding base editor
Text: (§1) Base editor systems comparing guide RNAs evaluated in Example 1 were subsequently tested for anti-viral and editing efficacy using the Hepatitis B virus-primary human hepatocyte (HBV-PHH) system. Cells were transfected with the guide RNAs and mRNAs encoding the base editor as described in Example 1. […] Guide RNAs ABE-133, MSPbeam94, and ABE-85 were associated with a 70-80% reduction of HBV DNA as compared to controls. The guide RNAs PolyA-NGC1 and PolyA-NGC2 were associated with high editing followed by 90% efficacy in reduction of HbeAg.
The HBV-PHH system for studying the Hepatitis B virus is described, for example, by Winer, et al., “Long-term hepatitis B infection in a scalable hepatic co-culture system,” Nat. Commun. 8:125 (2017) and by Zhou, et al. “Long-term maintenance of human fetal hepatocytes and prolonged susceptibility to HBV infection by co-culture with non-parenchymal cells,” J. Virol Methods, 195:185-93 (2014); and is provided commercially by ImQuest BioSciences (imquestbio.com/programs/virology/hbv/)).
(§2) The design of the experiments is described schematically in FIG. 14. Primary human hepatocyte (PHH) cells were infected with HBV at day 0. At days 4 and 11, the cells were transfected with mRNA encoding BE4 and with gRNA37 and gRNA40. Measurements of HBV DNA were taken over time, and measurements of HBsAg, HBeAG, HBV total DNA, 3.5 kb RNA, and cccDNA editing were taken at day 25. The experiments were carried out using a PHH co-culture system available from PhoenixBio. The PHH co-culture system maintained hepatocyte differentiation and metabolic activity for over 30 days. The HBV infection in the cells was persistent and a cccDNA level was maintained.
(§3) The design of the experiments is described schematically in FIG. 18. Primary human hepatocyte (PHH) cells were infected with HBV at day 0, at day 4 an 8-day. Treatment with lamivudine commenced (which included a 3-day pretreatment period within the 8-day total), and cells were transfected with mRNA encoding BE4 and the gRNAs gRNA37 and gRNA40 at days 7 and 14. HBV DNA levels were measured over time, and additional HBV markers were measured at day 21.
(§4) Primary hepatocytes (PHH) co-cultures infected with HBV were used to test antiviral efficacy of base editing systems. Primary hepatocyte co-culture (PHH) infected with HBV virus is a clinically relevant system for assessing anti-viral activity of base editing systems. The base editing reagents (mRNA encoding a base editor(s) and synthetic gRNA) were transfected via lipofection twice over the course of two weeks. The first transfection was performed about 3, 4, or 7 days after infection (days post infection (dpi)). Not being bound by theory, this 3-to-7-day period ensured that the cccDNA was completely formed at the time of the transfection. The second transfection was at about 7, 10, 11, or 14 days after infection. Extracellular parameters (e.g., HBsAg, HBeAg, and HBV DNA) were monitored over the course of the experiment (including the end of the experiment) and intracellular parameters (HBV DNA, viral RNA, and editing) were measured at the end of the experiment. Cells were lysed at the termination of the experiment (e.g., at 15, 17, 21, or 25 days).
(§5) Transfection details: RNA format, 800 ng total RNA per well in a 24 well plate (600 ng base editor-encoding mRNA+200 ng gRNA) transfected via lipofection (lipofectamin messengerMax, thermofisher Scientific) according to the vendor protocol.

[3] = system: HBV genome in HEK293T cells transduced with a lentiviral vector; assay: Base editing efficiency in Hek293-lentiHBV system (PCR amplicons sequenced on MiSeq); type: cell-based, Hepatitis B virus; parameters: Editing Efficiency 2 (%): concentration or dose not given beside the values; conditions: for Average Editing Efficiency (%): average of 3, base editor Cas12b-ABE; for Average Editing Efficiency (%) / Editing Efficiency 1 (%) / Editing Efficiency 2 (%) / Editing Efficiency 3 (%): plasmid transfection, four days; for Editing Efficiency 1 (%): replicate 1, base editor Cas12b-ABE; for Editing Efficiency 2 (%): replicate 2, base editor Cas12b-ABE; for Editing Efficiency 3 (%): replicate 3, base editor Cas12b-ABE
[4] = system: HBV cccDNA; assay: Base editing of HBV cccDNA in primary human hepatocytes (HBV-PHH); type: cell-based, Hepatitis B virus; conditions: HBV-PHH system
Text: as §1
Having identified gRNA37 and gRNA40 as effective gRNAs, the antiviral efficacy of a base editor system containing BE4, gRNA37 and gRNA40 (i.e., multiplexing gRNAs) was evaluated, FIGS. 8-10. It was determined that the base editor system multiplexed with the two gRNAs was associated with a reduction of HBV viral parameters in HepG2-NTCP cells, see FIG. 9. […] For the evaluation of editing of cccDNA, the cccDNA was enriched via Hirt extraction and ExoI/ExoIII nuclease treatment to remove rcDNA (relaxed circular DNA). Throughout the Examples provided herein, editing of cccDNA was evaluated using next generation sequencing completed using cccDNA enriched in this way.
as §2, §3, §4, §5

Row | Molecule | HBV markers relative to the no treatment control (cccDNA editing and/or viral replication) [2] | cccDNA Editing in PHH A > G % [4] [%] | Average Editing Efficiency (%) [3] [%] | Editing Efficiency 1 (%) [3] [%] | Editing Efficiency 2 (%) [3] [%] | Editing Efficiency 3 (%) [3] [%] | other results
1 | C=C1[C@H](CO)[C@@H](O)C[C@@H]1n1cnc2c(=O)[nH]c(N)nc21 [Entecavir] |  |  |  |  |  |  | HBV rebound (serum HBV DNA) ([1]; Entecavir 0.03 mg/kg orally for two weeks then discontinued, LNP 2 mg/kg): rebounds; reduction in serum levels of HBV DNA at day 21 ([1]; Entecavir orally daily days 1-14, base editing reagents day 1 or days 1 and 14): approximately 2 log
2 | B1 | robust reduction in all HBV markers | 56.0 |  |  |  |  | % Editing average ([3]; base editor Abe7.10): 58%
3 | B2 |  |  | 20.00 | 14.70 | 26.37 | 18.93 | 
4 | B3 |  |  | 0.54 | 0.12 | 0.36 | 1.14 | 
5 | B4 | robust reduction in all HBV markers |  | 58.03 | 44.34 | 60.28 | 69.47 | 
6 | B5 | robust reduction in all HBV markers | 76.0 |  |  |  |  | % Editing average ([3]; base editor VRQR-ABE): 65%
7 | B6 | robust reduction in all HBV markers | 60.4 |  |  |  |  | efficacy in reduction of HbeAg [2]: 90%; editing [4]: high editing
8 | B7 | robust reduction in all HBV markers | 62.9 |  |  |  |  | efficacy in reduction of HbeAg [2]: 90%; editing [4]: high editing
9 | B8 | robust reduction in all HBV markers |  |  |  |  |  | % Editing average ([3]; base editor Cas12b-ABE): 54%
